Reference: the supplement of paper PMC9170038

Test system: K4 kissing-loop RNA reporter
Experiment: apparent KD of K4 kissing-loop reporter; higher = weaker reporter binding
Conditions: Eterna round: R107
Method: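 RNA-MaP round R107: designed RNA switches with theophylline, tryptophan, arginine or FMN aptamers are transcribed on-chip within common flanks. They are titrated with a labelled K4 kissing-loop RNA reporter in RNA-MaP buffer (100 mM Tris pH 7.5, 80 mM KCl, 4 mM MgCl2), without ligand or with the indicated ligand. Median apparent KD per design.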

[1] = input ligand: theophylline 20 uM
[2] = input ligand: tryptophan 2.4 mM
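Also: bound reporter read as fluorescence of individual clusters on recovered sequencing chips by microscopy, with normalized cluster intensities fitted with a binding model.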

Row | Sequence | apparent KD of K4 kissing-loop reporter (input ligand: FMN 200 uM) [nM] | apparent KD of K4 kissing-loop reporter (input ligand: arginine 13.2 mM) [nM] | apparent KD of K4 kissing-loop reporter (input ligand: none) [nM] | apparent KD of K4 kissing-loop reporter [1] [nM] | apparent KD of K4 kissing-loop reporter [2] [nM]
1 | CGCAAUCGAACUGAUACCAGUCAUAAUGGCUGAGAAGCACGAGUGAUGUUCGUAACGAAUGACCCUUGGCAGCAGUUCGAUUGCG [Theo B SS t8] | 706 | 807 | 944 | 330 | 839
2 | UGAUACCAGACGGCCGCCACUAGACCAGUCAAAGACUGGAAGUGAUGUUUGAGGAGUGAUGUUCCUAGGACCGGGUCUGGUAUCU [TrypBX 3 #Palindromic #SwitchBubble #StaticStem] | 97.9 | 81.7 | 90.5 | 89 | 41.5
3 | AGGAGCGUGGGAUGGAAAUCGCACGCUCCUCGAGGACCGGUACGGCCGCCACUCGCUCGCGCCGAGUGAUGUUCGGCCGGCGAAG [#2 Same State - Tryptophan A Attempt #15 (HarryS)] | 579 | 194 | 128 | 129 | 226
4 | UGGAGUUGACGAAAAGUCAACUCCGGAGAAGGAGCGGACGAAAGUCCAGGUAGGUCGCUCCCUACCAGUGAUGUUGGUACUGAAA | 244 | 241 | 209 | 319 | 181
5 | UGUCAUUGGUCGGCCGCCACUUUAUAUGGAGUGAUGUUUUGUAGAUUGUGUUGAAAGGUGUGGUGAAGGACCGGGACCGAUGACU [FiskerMod 25 - Jieux - Same State - Tryptophan B] | 803 | 617 | 1010 | 1010 | 967
6 | AGGCACGAGCAAGGAUAUCGAGUAGAGUGAUGUUCUGCCUGGGUUGGCUCGCAAGAGCCUUCUCAGCGAGAAGGUGCUCGUGCCU [#2 Same State - FMN A Attempt #18 (HarryS)] | 176 | 602 | 946 | 595 | 640
7 | CCAUCGCUAUUCGAUACCAGUCAUAAAAUCUUUGGUUUAAUAAAGGAGUGAUGUUCCCAAGACCCUUGGCAGCGAAUAGUGAUGG [Theophylline B K4 8] | 186 | 185 | 176 | 197 | 190
